Test results as given in paper PMC10691782 (Cellular immunology, 2022).
One block for each molecule: values may come before it.

Legend:
[1] = molecular target: BAFF in human plasma (human (endogenous in plasma)); assay: SEC
[2] = molecular target: BAFF 60-mer:mBaffR-Fc complex (human | murine, UniProt Q9Y275-1 134-285; Q9D8D0 1-71); assay: ELISA
[3] = molecular target: Recombinant BAFF 60-mer (histidine-tagged BAFF amino acid 134-285) (human, UniProt Q9Y275-1 134-285); assay: SPR
[4] = molecular target: Recombinant BAFF 3-mer (Flag-tagged BAFF amino acid 134-285) (human, UniProt Q9Y275-1 134-285); assay: SPR

Molecule: BAFF in human plasma (natural protein)
stoichiometry N [1]: 3

binding result [2]: binds
Molecule: MAQQCFHSEYFDSLLHACKPCHLRCSNPPATCQPYCDPSVTSSVKGTYT (Fc fusion, UniProt O88472 1-49, looked up, not fully specified; biotin (EZ-Link Sulfo-NHS-Biotin), in the ELISA only) [Murine BCMA-Fc]

binding result [3]: binds
binding result [4]: binds
B1: mBaffR-Fc (murine BR3 ecto-domain fused to murine IgG1 Fc fragment) (Fc fusion, UniProt Q9D8D0 1-71, looked up)
chain: MGARRLRVRSQRSRDSSVPTQCNQTECFDPLVRNCVSCELFHTPDTGHTSSLEPGTALQPQEGSALRPDVA

binding result [2]: binds
B2: Murine TACI-Fc (Fc fusion, UniProt Q9ET35 1-128, looked up)
chain: MAMAFCPKDQYWDSSRKSCVSCALTCSQRSQRTCTDFCKFINCRKEQGRYYDHLLGACVSCDSTCTQHPQQCAHFCEKRPRSQANLQPELGRPQAGEVEVRSDNSGRHQGSEHGPGLRLSSDQLTLYC
modifications: biotin (EZ-Link Sulfo-NHS-Biotin), in the ELISA only
